Test results published in patent US8236762B2, “Peptide-cytotoxic conjugates” (IPSEN Pharma S.A.S., priority 2006, dated 2012).
Numbered stars: 1 amine (or outer) side, 2 acyl side, 3 side chain; on linkers, the order of the positions; unused ones are H or OH. Bridge positions count the residues as written; N and C are the ends. Square brackets hold non-standard residues; d marks the D form. Peptide text beside a SMILES is read from it. * marks the point of attachment. Pipz(1-CH2CO,4-CH2CH2NH) = O=C(CN1CCN(CCN[*:1])CC1)[*:2]; X1 = CC[C@@]1(O*)C(=O)OCc2c1cc1n(c2=O)Cc2cc3ccccc3nc2-1; Tyr(3-I) = N[C@@H](Cc1ccc(O)c(I)c1)C(=O)O; Glutaryl = O=C(CCCC(=O)[*:2])[*:1]; Suc = O=C(CCC(=O)[*:2])[*:1]; Nle = CCCC[C@H](N)C(=O)O; Abu = CC[C@H](N)C(=O)O; AEEA = NCCOCCOCC(=O)O; Ava = NCCCCC(=O)O; GABA = NCCCC(=O)O; βAla = NCCC(=O)O

Key:
[1] = target: T1, hSSTR-3 (Homo sapiens, UniProt P32745); experiment: Somatostatin receptor radioligand binding, hSSTR-3 (CHO-K1 membranes); conditions: read-out: Ki hSSTR3 ± (SEM)
T1 construct: expressed in transfected cells; host or cells: CHO-K1
Method: (§2) For the hSSTR-1, hSSTR-3, and hSSTR-4 assays, aliquots of the membrane preparations were incubated for 90 minutes at 25° C. with 0.05 nM [^125I-Tyr11]SRIF-14 in 50 mM HEPES (pH 7.4) buffer containing 0.2% BSA and 5 mM MgCl2. The final assay volume was 0.3 ml. For the hSSTR-2 and hSSTR-5 assays, [^125I]-[4-(2-hydroxyethyl)]-1-piperazinylacetyl-D-Phe-c(Cys-Tyr-D-Trp-Lys-Abu-Cys)-Thr-NH2 (0.05 nM) and [^125I]-D-Phe-c(Cys-Tyr-D-Trp-Lys-Val-Cys)-Thr-NH2 were employed as the radioligands, respectively.

[2] = target: T2, hSSTR-4 (Homo sapiens, UniProt P31391); experiment: Somatostatin receptor radioligand binding, hSSTR-4 (CHO-K1 membranes); conditions: read-out: Ki hSSTR4 ± (SEM)
T2 construct: expressed in transfected cells; host or cells: CHO-K1
Method: as §2

[3] = Half-life determination in mouse plasma (LC-MS); assay type: in vitro ADME; conditions: 37° C.
Method: (§1) Samples containing approximately 50 μg/ml up to and including approximately 500 μg/ml of test compound according to Formula IA or IB or II was added to 450 μl human or mouse plasma, vortexed briefly and incubated at 37° C. At various time intervals, e.g., 0, 0.5, 1, 2, 4, 6, 8, 24, 36 and 48 hours, 50 μl of the compound-plasma mixture was added to 150 μl acetonitrile in a microcentrifuge tube. The mixture was vortexed, centrifuged for 5 minutes at 10K RPM, and 135 μl of supernatant was transferred to an injection vial. The recovered supernatant was analyzed by using a liquid chromatography-mass spectrophotometer system (LC-MS) consisting of a Finnigan Deca XP® mass spectrometer with an ESI probe at the positive ion mode. HPLC separation was carried out on a Luna 3μ C8 (2)® 3×50 mm column with a gradient decreasing from 100% A to 80% B for 10 minutes at a flow rate of 0.25 ml/min. Buffer A was 0.1% acetic acid in water and buffer B was 0.1% acetic acid acetonitrile.

[4] = target: T3, hSSTR-1 (Homo sapiens, UniProt P30872); experiment: Somatostatin receptor radioligand binding, hSSTR-1 (CHO-K1 membranes); conditions: read-out: Ki hSSTR1 ± (SEM)
T3 construct: expressed in transfected cells; host or cells: CHO-K1
Method: Membranes for in vitro receptor binding assays were obtained by homogenizing (Polytron setting 6, 15 sec) CHO-K1 cells expressing human somatostatin receptor subtypes hSSTR-1, hSSTR-2, hSSTR-3, hSSTR-4 or hSSTR-5 in ice-cold 50 mM Tris-HCl. The homogenized cells were centrifuged twice at 39,000 g for 10 minutes with an intermediate resuspension in fresh buffer. The final pellets were resuspended in 10 mM Tris-HCl to prepare the cell membrane homogenate for use in the binding assay.
The final assay volume was 0.3 ml.
The cell membrane homogenate was incubated with the radioligands for 90 minutes at 25° C. The incubations were terminated by rapid filtration through GF/C filters pre-soaked in 0.3% polyethylenimine using a Brandel® filtration manifold (Gaithersberg, Md., U.S.A.). Each tube and filter was washed three times with 5-ml aliquots of ice-cold buffer. Specific binding was defined as the total radioligand bound minus that bound in the presence of 1000 nM SRIF-14 (for hSSTR-1, hSSTR-3, hSSTR-4 or hSSTR-5), or 1000 nM DPhe-c(Cys-Tyr-D-Trp-Lys-Abu-Cys)-Thr-NH2 for hSSTR-2.

[5] = target: T4, hSSTR-2 (Homo sapiens, UniProt P30874); experiment: Somatostatin receptor radioligand binding, hSSTR-2 (CHO-K1 membranes); conditions: read-out: Ki hSSTR2 ± (SEM)
T4 construct: expressed in transfected cells; host or cells: CHO-K1
Method: as §2

[6] = target: T5, hSSTR-5 (Homo sapiens, UniProt P35346); experiment: Somatostatin receptor radioligand binding, hSSTR-5 (CHO-K1 membranes); conditions: read-out: Ki hSSTR5 ± (SEM)
T5 construct: expressed in transfected cells; host or cells: CHO-K1
Method: as §2

[7] = Half-life determination in human plasma (LC-MS); assay type: in vitro ADME; conditions: 37° C.
Method: as §1

[8] = target: T6, bombesin/GRP receptor (Rattus norvegicus, UniProt P52500); experiment: Bombesin/GRP radioligand binding (AR42J rat pancreas cell membranes); conditions: read-out: Ki bombesin receptor ± (SEM)
T6 construct: AR42J rat pancreas cells expressing the native bombesin/GRP receptor; endogenous in cells; host or cells: AR42J rat pancreas cells
Method: Membranes were prepared for radioligand binding studies by homogenization of AR42J rat pancreas cells expressing the native bombesin/GRP receptor in 20 ml of ice-cold 50 mM Tris-HCl with a Brinkman Polytron® (Westbury, N.Y., U.S.A.) at settings of 6, 15 seconds. The homogenates were washed twice by centrifugation (39,000 g/10 minutes) and the final pellets were resuspended in 50 mM Tris-HCl containing 2.5 mM MgCl2 and 0.1% BSA. […] The filters were then washed three times with 5-ml aliquots of ice-cold 50 mM Tris-HCl. The bound radioactivity trapped on the filters was counted by gamma spectrometry (Wallac LKB®, Gaithersburg, Md., U.S.A.).

T6 sequence (P52500 whole entry): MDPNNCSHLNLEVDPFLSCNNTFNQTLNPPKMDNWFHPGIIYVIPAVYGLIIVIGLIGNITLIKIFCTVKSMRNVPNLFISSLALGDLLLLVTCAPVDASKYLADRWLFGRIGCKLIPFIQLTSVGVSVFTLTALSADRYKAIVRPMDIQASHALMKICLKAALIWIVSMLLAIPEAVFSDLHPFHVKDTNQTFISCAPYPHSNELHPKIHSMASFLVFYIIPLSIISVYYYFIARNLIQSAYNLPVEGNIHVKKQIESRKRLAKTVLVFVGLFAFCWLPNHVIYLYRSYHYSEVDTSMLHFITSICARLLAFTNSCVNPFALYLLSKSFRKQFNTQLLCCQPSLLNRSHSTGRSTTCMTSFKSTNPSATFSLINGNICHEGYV
T3 sequence (P30872 whole entry): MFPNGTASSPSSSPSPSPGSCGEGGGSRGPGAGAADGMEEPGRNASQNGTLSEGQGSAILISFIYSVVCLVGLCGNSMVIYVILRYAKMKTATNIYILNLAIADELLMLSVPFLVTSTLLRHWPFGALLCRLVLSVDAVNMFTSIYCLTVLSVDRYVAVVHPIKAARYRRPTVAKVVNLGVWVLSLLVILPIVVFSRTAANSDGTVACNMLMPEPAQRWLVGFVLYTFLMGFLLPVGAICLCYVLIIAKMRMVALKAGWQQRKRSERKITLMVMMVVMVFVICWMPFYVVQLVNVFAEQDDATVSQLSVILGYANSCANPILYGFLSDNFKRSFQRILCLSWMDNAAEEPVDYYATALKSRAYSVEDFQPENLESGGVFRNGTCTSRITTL
T5 sequence (P35346 whole entry): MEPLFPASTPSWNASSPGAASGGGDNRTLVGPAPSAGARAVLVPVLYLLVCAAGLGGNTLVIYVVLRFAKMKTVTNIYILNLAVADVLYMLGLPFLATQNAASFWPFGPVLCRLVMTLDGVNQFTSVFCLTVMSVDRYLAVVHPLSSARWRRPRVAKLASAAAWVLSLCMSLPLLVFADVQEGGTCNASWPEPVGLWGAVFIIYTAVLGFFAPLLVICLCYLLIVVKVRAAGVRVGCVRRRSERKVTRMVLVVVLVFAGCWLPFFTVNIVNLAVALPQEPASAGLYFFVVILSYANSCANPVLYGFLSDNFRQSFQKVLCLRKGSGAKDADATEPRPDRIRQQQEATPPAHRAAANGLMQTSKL
T1 sequence (P32745 whole entry): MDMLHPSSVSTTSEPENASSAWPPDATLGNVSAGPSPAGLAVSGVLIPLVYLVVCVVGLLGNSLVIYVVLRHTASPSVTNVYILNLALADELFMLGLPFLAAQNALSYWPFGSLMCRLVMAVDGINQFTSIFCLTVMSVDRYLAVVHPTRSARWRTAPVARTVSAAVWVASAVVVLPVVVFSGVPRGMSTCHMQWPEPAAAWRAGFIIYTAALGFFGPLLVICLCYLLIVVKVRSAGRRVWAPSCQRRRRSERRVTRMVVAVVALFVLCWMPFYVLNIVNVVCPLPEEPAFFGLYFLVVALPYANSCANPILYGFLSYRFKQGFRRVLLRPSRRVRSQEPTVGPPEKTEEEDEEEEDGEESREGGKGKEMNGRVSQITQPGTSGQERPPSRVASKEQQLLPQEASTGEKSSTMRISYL
T2 sequence (P31391 whole entry): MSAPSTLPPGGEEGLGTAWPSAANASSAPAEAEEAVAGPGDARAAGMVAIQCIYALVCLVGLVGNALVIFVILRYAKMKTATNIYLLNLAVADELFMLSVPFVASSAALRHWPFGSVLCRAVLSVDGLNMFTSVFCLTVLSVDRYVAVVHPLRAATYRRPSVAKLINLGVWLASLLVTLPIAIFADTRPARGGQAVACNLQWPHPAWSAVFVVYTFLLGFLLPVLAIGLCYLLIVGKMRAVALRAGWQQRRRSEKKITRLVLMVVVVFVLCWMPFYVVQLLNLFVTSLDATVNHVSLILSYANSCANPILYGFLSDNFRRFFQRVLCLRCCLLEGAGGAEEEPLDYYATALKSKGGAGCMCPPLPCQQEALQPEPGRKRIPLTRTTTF
T4 sequence (P30874 whole entry): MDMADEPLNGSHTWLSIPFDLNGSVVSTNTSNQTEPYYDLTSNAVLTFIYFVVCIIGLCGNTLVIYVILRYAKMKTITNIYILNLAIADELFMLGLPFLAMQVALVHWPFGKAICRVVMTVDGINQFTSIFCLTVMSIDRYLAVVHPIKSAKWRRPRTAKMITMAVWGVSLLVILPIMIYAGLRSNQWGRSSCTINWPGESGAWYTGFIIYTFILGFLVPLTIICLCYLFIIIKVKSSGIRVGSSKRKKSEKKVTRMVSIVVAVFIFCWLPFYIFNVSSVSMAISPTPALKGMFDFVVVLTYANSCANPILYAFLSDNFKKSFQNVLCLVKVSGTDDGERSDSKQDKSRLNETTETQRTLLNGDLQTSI

Compound | Ki [1] [nM] | Ki [2] [nM] | half-life [3] [h] | Ki [4] [nM] | Ki [5] [nM] | Ki [6] [nM] | half-life [7] [h] | Ki [8] [nM]
CC[C@@H]1NC(=O)[C@H](CCCCN)NC(=O)[C@@H](Cc2c[nH]c3ccccc23)NC(=O)[C@H](Cc2ccc(O)c(I)c2)NC(=O)[C@@H](NC(=O)[C@@H](Cc2ccc(O)cc2)NC(=O)[C@@H](Cc2ccc(O)cc2)NC(=O)[C@H](CCCCN)NC(=O)COCCOCCNC(=O)COCCOCCNC(=O)COCCOCCNC(=O)COCCOCCNC(=O)COCCOCCNC(=O)COCCOCCNC(=O)CCCC(=O)NCC(=O)O[C@]2(CC)C(=O)OCc3c2cc2n(c3=O)Cc3cc4ccccc4nc3-2)CSSC[C@@H](C(=O)N[C@H](C(N)=O)[C@@H](C)O)NC1=O [Example 2, Camptothecin-rvGly-Glut-(Doc)6-Lys-D-Tyr-D-Tyr-c(Cys-3-(I)Tyr-D-Trp-Lys-Abu-Cys)-Thr-NH2] ({X1-Gly-Glutaryl-AEEA-AEEA-AEEA-AEEA-AEEA-AEEA}-K[dY][dY]C[Tyr(3-I)][dW]K[Abu]CT-NH2; disulfide 4-9) | 125 | ≥ 1000 | 4.6 | ≥ 1000 | 0.36 | 3 | 2.2 | –
CC[C@@H]1NC(=O)[C@H](CCCCN)NC(=O)[C@@H](Cc2c[nH]c3ccccc23)NC(=O)[C@H](Cc2ccc(O)cc2)NC(=O)[C@@H](NC(=O)[C@@H](Cc2ccccc2)NC(=O)CN2CCN(CCNC(=O)COCCOCCNC(=O)COCCOCCNC(=O)COCCOCCNC(=O)COCCOCCNC(=O)CCC(=O)NCCCCCCCCC(=O)O[C@]3(CC)C(=O)OCc4c3cc3n(c4=O)Cc4cc5ccccc5nc4-3)CC2)CSSC[C@@H](C(=O)N[C@H](C(N)=O)[C@@H](C)O)NC1=O [Example 17, Camptothecin-rvAnc-Suc-(Doc)4-Aepa-D-Phe-cyclo(Cys-Tyr-D-Trp-Lys-Abu-Cys)-Thr-NH2] | – | – | 15.6 | ≥ 1000 | – | ≥ 1000 | 28.6 | –
CC[C@@H]1NC(=O)[C@H](CCCCN)NC(=O)[C@@H](Cc2c[nH]c3ccccc23)NC(=O)[C@H](Cc2ccc(O)cc2)NC(=O)[C@@H](NC(=O)[C@@H](Cc2ccccc2)NC(=O)CN2CCN(CCNC(=O)COCCOCCNC(=O)COCCOCCNC(=O)COCCOCCNC(=O)COCCOCCNC(=O)CCC(=O)NCCCCCCC(=O)O[C@]3(CC)C(=O)OCc4c3cc3n(c4=O)Cc4cc5ccccc5nc4-3)CC2)CSSC[C@@H](C(=O)N[C@H](C(N)=O)[C@@H](C)O)NC1=O [Example 18, Camptothecin-rvAhp-Suc-(Doc)4-Aepa-D-Phe-cyclo(Cys-Tyr-D-Trp-Lys-Abu-Cys)-Thr-NH2] | – | – | 16.2 | ≥ 1000 | – | ≥ 1000 | 8 | –
CCCC[C@H](NC(=O)[C@H](CC(C)C)NC(=O)[C@H](Cc1c[nH]cn1)NC(=O)CCNC(=O)[C@@H](NC(=O)[C@H](C)NC(=O)[C@H](Cc1c[nH]c2ccccc12)NC(=O)[C@H](CCC(N)=O)NC(=O)[C@H](CCCC)NC(=O)CN1CCN(CCNC(=O)COCCOCCNC(=O)COCCOCCNC(=O)COCCOCCNC(=O)COCCOCCNC(=O)CCC(=O)NCC(=O)O[C@]2(CC)C(=O)OCc3c2cc2n(c3=O)Cc3cc4ccccc4nc3-2)CC1)C(C)C)C(N)=O [Example 20, Camptothecin-rvGly-Suc-(Doc)4-Aepa-Nle-Gln-Trp-Ala-Val-β-Ala-His-Leu-Nle-NH2] ({X1-Gly-Suc-AEEA-AEEA-AEEA-AEEA}-[Pipz(1-CH2CO,4-CH2CH2NH)][Nle]QWAV[βAla]HL[Nle]-NH2) | – | – | 2.8 | – | – | – | 4.8 | 4.57
CCCC[C@H](NC(=O)[C@H](CC(C)C)NC(=O)[C@H](Cc1c[nH]cn1)NC(=O)CCNC(=O)[C@@H](NC(=O)[C@H](C)NC(=O)[C@H](Cc1c[nH]c2ccccc12)NC(=O)[C@H](CCC(N)=O)NC(=O)CCCCCNC(=O)CN1CCN(CCNC(=O)COCCOCCNC(=O)COCCOCCNC(=O)COCCOCCNC(=O)COCCOCCNC(=O)CCC(=O)NCC(=O)O[C@]2(CC)C(=O)OCc3c2cc2n(c3=O)Cc3cc4ccccc4nc3-2)CC1)C(C)C)C(N)=O [Example 21, Camptothecin-rvGly-Suc-(Doc)4-Aepa-Ahx-Gln-Trp-Ala-Val-β-Ala-His-Leu-Nle-NH2] | – | – | 5.4 | – | – | – | 3.2 | 1.9
CCCC[C@H](NC(=O)[C@H](CC(C)C)NC(=O)[C@H](Cc1c[nH]cn1)NC(=O)CCNC(=O)[C@@H](NC(=O)[C@H](C)NC(=O)[C@H](Cc1c[nH]c2ccccc12)NC(=O)[C@H](CCC(N)=O)NC(=O)CCCNC(=O)[C@H](CC(C)C)NC(=O)CN1CCN(CCNC(=O)COCCOCCNC(=O)COCCOCCNC(=O)COCCOCCNC(=O)COCCOCCNC(=O)CCC(=O)NCC(=O)O[C@]2(CC)C(=O)OCc3c2cc2n(c3=O)Cc3cc4ccccc4nc3-2)CC1)C(C)C)C(N)=O [Example 22, Camptothecin-rvGly-Suc-(Doc)4-Aepa-Leu-Gaba-Gln-Trp-Ala-Val-β-Ala-His-Leu-Nle-NH2] ({X1-Gly-Suc-AEEA-AEEA-AEEA-AEEA}-[Pipz(1-CH2CO,4-CH2CH2NH)]L[GABA]QWAV[βAla]HL[Nle]-NH2) | – | – | 2.1 | – | – | – | 1.8 | 18.2
CCCC[C@H](NC(=O)[C@H](CC(C)C)NC(=O)[C@H](Cc1c[nH]cn1)NC(=O)CCNC(=O)[C@@H](NC(=O)[C@H](C)NC(=O)[C@H](Cc1c[nH]c2ccccc12)NC(=O)[C@H](CCC(N)=O)NC(=O)[C@H](CC(N)=O)NC(=O)CCCNC(=O)CN1CCN(CCNC(=O)COCCOCCNC(=O)COCCOCCNC(=O)COCCOCCNC(=O)COCCOCCNC(=O)CCC(=O)NCC(=O)O[C@]2(CC)C(=O)OCc3c2cc2n(c3=O)Cc3cc4ccccc4nc3-2)CC1)C(C)C)C(N)=O [Example 23, Camptothecin-rvGly-Suc-(Doc)4-Aepa-Gaba-Asn-Gln-Trp-Ala-Val-β-Ala-His-Leu-Nle-NH2] ({X1-Gly-Suc-AEEA-AEEA-AEEA-AEEA}-[Pipz(1-CH2CO,4-CH2CH2NH)][GABA]NQWAV[βAla]HL[Nle]-NH2) | – | – | 2.9 | – | – | – | 4.2 | 7.65
CCCC[C@H](NC(=O)[C@H](CC(C)C)NC(=O)[C@H](Cc1c[nH]cn1)NC(=O)CCNC(=O)[C@@H](NC(=O)[C@H](C)NC(=O)[C@H](Cc1c[nH]c2ccccc12)NC(=O)[C@H](CCC(N)=O)NC(=O)[C@H](CC(N)=O)NC(=O)CCCCNC(=O)CN1CCN(CCNC(=O)COCCOCCNC(=O)COCCOCCNC(=O)COCCOCCNC(=O)COCCOCCNC(=O)CCC(=O)NCC(=O)O[C@]2(CC)C(=O)OCc3c2cc2n(c3=O)Cc3cc4ccccc4nc3-2)CC1)C(C)C)C(N)=O [Example 24, Camptothecin-rvGly-Suc-(Doc)4-Aepa-Apn-Asn-Gln-Trp-Ala-Val-β-Ala-His-Leu-Nle-NH2] ({X1-Gly-Suc-AEEA-AEEA-AEEA-AEEA}-[Pipz(1-CH2CO,4-CH2CH2NH)][Ava]NQWAV[βAla]HL[Nle]-NH2) | – | – | 2.6 | – | – | – | 4.6 | 4.07
CCCC[C@H](NC(=O)[C@H](CC(C)C)NC(=O)[C@H](Cc1c[nH]cn1)NC(=O)CCNC(=O)[C@@H](NC(=O)[C@H](C)NC(=O)[C@H](Cc1c[nH]c2ccccc12)NC(=O)[C@H](CCC(N)=O)NC(=O)[C@@H](Cc1ccc(O)cc1)NC(=O)[C@@H](CO)NC(=O)CN1CCN(CCNC(=O)COCCOCCNC(=O)COCCOCCNC(=O)COCCOCCNC(=O)COCCOCCNC(=O)CCC(=O)NCC(=O)O[C@]2(CC)C(=O)OCc3c2cc2n(c3=O)Cc3cc4ccccc4nc3-2)CC1)C(C)C)C(N)=O [Example 27, Camptothecin-rvGly-Suc-(Doc)4-Aepa-D-Ser-D-Tyr-Gln-Trp-Ala-Val-β-Ala-His-Leu-Nle-NH2] ({X1-Gly-Suc-AEEA-AEEA-AEEA-AEEA}-[Pipz(1-CH2CO,4-CH2CH2NH)][dS][dY]QWAV[βAla]HL[Nle]-NH2) | – | – | 3.8 | – | – | – | 4.5 | 3.96
